Reference: the DeepSol protein solubility set

Assay: soluble on expression in E. coli; label from the status in PepcDB or PDB records

Row | Sequence | soluble on expression in E. coli
1 | IGVFLKDKQKVLVVEESEPFIEEQIRIEGNVYGKKTGHLPYGQVTSKDIDFALEHIEEEKVSRPADPGLIESRKKSRASICEDCPYLPLYNFLRISGVRVAGDMGCSVRSAPEPLSAVDVSFALGSAISVACGFERKGIAVIGDFALAHSGILGLLNAVSEGHEVLVLVLQNEVAAMTGGQKVPDLRKVIEAIVPDVSVFDMDGRKEKEQASGSELSDLITEKLALPGISVIFI | not soluble
2 | IKLNTLNTMSMGVTMRYMSEKYFKMMCGVQMEINYSQRGWDEKIEDDSGNSYSRTMNYLEIPFMAHLAFGKDALNRGVKVFFNAGPQIGFFLGDNEKINWTTSTTRPEHGKEVENKFDYGITAGAGLEVSTGIGHFLLEGRYYMGLSDFYKNSKRDFFERSAHSFIGIRLSYLI | not soluble
3 | ILDTKPIPTIVDATTLGISGNTSGDYWLPTTMSLYQKELTDQIVSLHYSDILRYFETSHYKEDVILESMKTMCLNGSLVATHPYLLIDHYMPKSLITRDVPAHLAENSGKFSVLRDLINLVQEYETETAIVCRPGRTMDLLEALLLGNKVHIKRYDGHSIKSAAAANDFSCTVHLFSSEGINFTKYPIKSKARFDMLICLDTTVDTSQKDIQYLLQYKRERKGLERYAPIVRLVAINSIDHCRLFFGKKFDKNSREYLENVTAAMVILRDRLGTLPPDLRPIYSQKLHYLVEWLENPTVPWPLPDIYPLKQYTSMDVERSLLTEVHFK | soluble
4 | ILGIKTLLAVYRLFGRKAFDLILKLVMRYYHFTGKSAREASEIYLQNLQRYAAQQNIALPKQLDSYHHLLSFGRTMLDKLAAWQGDFNVDNLTIHGQHHFEEMAQKKQGVLILGSHLGNIELCRALGRRHSHVKINALVFTQHAEQFNAVMKAVNPNSELNLIQVSSMGPDTAILLQQKIEQGEWVVIVGDRTSTSKENRVVWADFLGKPAPFPQGPFMLASVLKAPVYLLFGLRDDEANTPHFNVYFEHFSDQITLPRKERQQALEHVVQQYAHRLEHHTLQAPLQWYNFFNFWTLSNQPHDKQQ | not soluble
5 | ILTENTPYFEQLSVPQRSVGRIIGRGGETIRSICKASGAKITCDKESEGTLLLSRLIKISGTQKEVAAAKHLILEKVSEDEELRKRIAHSA | soluble
6 | INDWSYSIGANFSYVTTKIMDLKGGDTPGQSVGDPLWAYYGYVCDGIFQNEEEIKNHPTQSMGTPVPGDLKYRDLNGDKVVDSKDRQVLGSYFPKINFGLNLSVQYKDFDLSALLQGAADVKSAPVAEIRYAFYNGGKVTEQHLDRWTPENPNATYPRLSMSDSKNRVTSSFWMQDASYAKLRNLQVGYSLPKQLISKYGISRLRVYCSIDNLFMISGFDGVDPEAISGNYYPLTRNYSFGLNVTF | not soluble
7 | IPAGELQIIDKIDAAFKVAATAAATAPADDKFTVFEAAFNKAIKETTGGAYDTYKCIPSLEAAVKQAYAATVAAAPQVKYAVFEAALTKAITAMSEVQKVSQ | soluble
8 | IPGPGFTAGAQGSCSLRCGAQDGLCSCHPTCSGLGTCCEDFLDYCLEILPSSGSMMGGKDFVVQHLKWTDP | soluble
9 | IQFTESCSMDQSAKEPLINYLDMEYFGTISIGSPPQNFTVIFDTGSSNLWVPSVYCTSPACKTHSRFQPSQSSTYSQPGQSFSIQYGTGSLSGIIGADQVSVEGLTVVGQQFGESVTEPGQTFVDAEFDGILGLGYPSLAVGGVTPVFDNMMAQNLVDLPMFSVYMSSNPEGGAGSELIFGGYDHSHFSGSLNWVPVTKQAYWQIALDNIQVGGTVMFCSEGCQAIVDTGTSLITGPSDKIKQLQNAIGAAPVDGEYAVECANLNVMPDVTFTINGVPYTLSPTAYTLLDFVDGMQFCSSGFQGLDIHPPAGPLWILGDVFIRQFYSVFDRGNNRVGLAPAVPWSHPQFEK | soluble
10 | ISEFDYSARFVLSDGKRKILRYPNPTNSLSSDVYYNGQILGDIWGYKTVGIAQTQEEMNAHLANGGTPNWGTNWGAGDVMYANLDGKEGVNNGSNTLEDHGDLTIIGNNTPRYNFGLTLTGAWKGFDFSVFLQGVMKRDYWLDGPYFWGANGGLWQSTAFKEHMDYWRPEGDPLGANTNAYYPKPYFNTDKNQKVQSGYLQNAAYCRLKNAQIGYTLPKTWTRKAAMESVRVYVSGDNLVTFSGISGVFDPELLGSDWGDGKLYPLQRTISIGLNVNF | not soluble
11 | ISISRADLAFDLFEVDCSEFVLEKKGRPTATKEFRSSTGTLETKYLGAPRSEKQVRLYNKKKEQLQNGTDKDKDFASQFKHWWRLEFQLRSRSIDEIFEVIDTIIFKPFNLKGLSIETQIYLTALIHDKNIWKKLHRNTRARYKKILETHQTSDTDYLGLLKDLLKHERPRLENQLAYYGGRIDKNSFQPFC | not soluble
12 | ITDHNTLSGVSKMVEACKINKRFLNNKCPQILAGIEISCSDKHHVVVILNNKDMDMMQKAEDWLTNYIISDDGTYLPSLLVIEAFVEIGAIAYIAHFNTSDLFKKPKFLSGLYIDKLFSTKKMEIIGLSNMDSKLAIEEKLSNYTKRKFHFILDEDSHTLEELCTKPFWIK | not soluble
13 | KELKIILLTDMHVGSLLQKDFVDYIVEEVNQKEVDMVLIGGDLVDESIEKVKSFLLPLNNLKSTHGTFYVPGNHEYYHGIEPILSFLDTLNLTILGNECVHLGGINLCGVYDYFARKRQNFAPDIDKALKKRNESKPTILLAHQPKQIRSLKESHSVDLVLSGHTHAGQIFPFSLLVKLAQTYLHGLYKHSP | not soluble
14 | KELWKLRKLRNHFSIQEEAELLVHSDSVGKGKVFCEKVAEESGVLAENPGFDRWQNSINPAHSDAEILDMYDSMVVSQQDKLATKVVSQHATES | not soluble
15 | KFLHEISLVLQTSVDLDEVLSVVMTAITAGKGFGMNRAFLLLTDKERKHLRGYLGVGPRNYGEAWFIWDEISRDDFTLKEMAKNFYQTKFTSEKQKFHDILENLTIPLSEHDHILVRALREKKPLLVENAFHNPDCDYSLTQTLGVDTFLITPLVSRNRRIGVIISDNCVTHKPITPQDVQSLETFAFPVAFAIERASLYERLQEE | not soluble
16 | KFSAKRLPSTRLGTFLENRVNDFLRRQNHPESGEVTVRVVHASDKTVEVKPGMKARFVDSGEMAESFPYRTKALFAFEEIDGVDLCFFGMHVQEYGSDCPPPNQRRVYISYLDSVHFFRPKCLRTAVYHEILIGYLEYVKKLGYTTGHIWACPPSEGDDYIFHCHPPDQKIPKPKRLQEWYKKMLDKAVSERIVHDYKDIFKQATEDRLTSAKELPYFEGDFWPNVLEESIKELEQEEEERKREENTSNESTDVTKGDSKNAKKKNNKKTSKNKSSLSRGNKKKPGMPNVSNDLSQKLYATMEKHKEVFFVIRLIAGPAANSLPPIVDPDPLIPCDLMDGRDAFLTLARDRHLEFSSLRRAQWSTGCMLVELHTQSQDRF | soluble
17 | KGEITYLNQAWASITGFSISECMGTMYNDYFIKEKHVADHINTQIQNKASSGMFTAKYVTKNGTIFWGEVHYKLYYDRDDQFTGSLGTMSD | not soluble
18 | KKDDFRNEFDHLLIEQANHAIEKGEHQLLYLQHQLDELNENKSKELQEKIIRELDVVCAMIEGAQGALERELKRTDLNILERFNYEEAQTLSKILLKDLKETEQKVKDIQTQ | soluble
19 | KKTFLTVRGNLTFNKDKIIENDEPPVDYPWMETRGTNVNATWGFIADGLFTSQAEIEDHATQFGTVHVGDIKYRDLNGDGVIDNYDKTVIGRGDVPRIYYGFGADLQIGDFSISALFQGTGQADRYLDGICIKPFWDDEGRDNVFANIHDRWSPDDPTNQDVFYPRMYVGSDANTNNVQKSSWWVKDVSFLRLKQLNISYNIPKKLLDRCFLKSASVYLMGTNLLTFSNFKLWDPELNTSNGTAYPNVSSYSVGVKFSF | not soluble
20 | KKTVRRILGVVEIGGSGENITKTELFKYDGISDSVVKTGICMWEEDVCQIAGITRDELMDDRINRKKVLKYMVNNNINDIRKVGDVLKQYQENPENVLKNIL | not soluble
21 | KLSPMIDLWDTLQSLLHVQELHVVAAHGEVKELLVRMSLNEATIPPEKVPIHAINLLLEDTVIPFIFTMEEERSISIPYTDSIDKYVYEPHTALLKAGAFKTVAYRLGLRKLHPNSHLYTSEAYESAFPGRTFVLEEIIPFSTSVLKQLRKVVPQASISCRNFPLSPIELRQRSKMADGGEKTLMGTTMADGKKVLLLLRKAE | not soluble
22 | KNFNPPTRRNWESNYFGMPLQDLVTAEKPIPLFVEKCVEFIEDTGLCTEGLYRVSGNKTDQDNIQKQFDQDHNINLVSMEVTVNAVAGALKAFFADLPDPLIPYSLHPELLEAAKIPDKTERLHALKEIVKKFHPVNYDVFRYVITHLNRVSQQHKINLMTADNLSICFWPTLMRPDFENREFLSTTKIHQSVVETFIQQCQFFFYNGEIVE | soluble
23 | KRLILLDYDGTLVPFQKRPEDASPTPQLLDTLQKLTADPLNHVVINSGRDHFTLEKWLGALPISFAAEHGAFYKENGVWHKNVHAQEWSPGLLSILKLFVSKTPRSHLEVKETALAWHYRETDAWLGRLRAQQLVNSLISICLKQNLQIMQGNKVIEIKSPEFTKGSEVNRLLLATRYDFILAMGDDTTDDDMFKALPVTAVTVKIGTASESARYNLPVQTDTLPFLQRLTDKSVVKAALKSGLKGQLSSAIDFLKRIINH | not soluble
24 | KSITIQTPYLIPDQPIYESLTIALAAGVKVNIFIPDRPDHPFVYRATQYYAQEFIDFGANVYRYDGGFLHSKLLIIDDEIVSIGSANMDIRSFELSFEANAFIYSSYFAKKIEKQISIDISKSKLLSKKDFETQ | not soluble
25 | KTFAALGSGVIGSGWIARALAHGLDVVAWDPAPGAEAALRARVANAWPALRKQGLAPGAAQERLRFVASIEECVGDADFIQESAPERLDLKLDLHARISAAARPDVLIGSSTSGLLPSEFYAEASHPERCLVGHPFNPVYLLPLVEVVGGERTAAEAVRAAMRVYESLGMRPLHVRKEVPGFIADRLLEALWREALHLVNDGVATTGEIDDAIRFGAGLRWSFMGTFLTYTLAGGNAGMRHFMAQFGPALQLPWTYLPAPELTEALIDRVVEGTAEQQGARSIAELERYRDDCLLAVLGAIRETKARHGFA | not soluble
26 | KTISLYKTKIPQDKTENVDAFLVTDSELISKLEKAKNKKEETKASGKSASARVAVQATQKKQSNEKQIVGYTTTSALSEDGKHIFKLGKLNSENYERKIIVGATVETLEQSTTLQSEEAIVLAAPGKYKDSDQKRVMITQGPNLIGVHANTKENEETKKFVNW | not soluble
27 | KTNTATVKVLPISMSDEGDSFLVKDSLGENKIPKNPSKVVILDLGILDTFDALKLNDKVVGVPAKNLPKYLQQFKNKPSVGGVQQVDFEAINALKPDLIIISGRQSKFYDKLKEIAPTLFVGLDNANFLSSFENNVLSVAKLYGLEKEALEKISDIKNEIEKAKSIVDEDKKALIILTNSNKISAFGPQSRFGIIHDVLGINAVDENIKVGTHGKSINSEFILEKNPDYIFVVDRNVILGNKERAQGILDNALVAKTKAAQNKKIIYLDPEYWYLASGNGLESLKTMILEIKNAVK | soluble
28 | KVNMDLRANLKQVKKEDTEKEKDLRDVGDWRKNIEEKSGMEGRKKMFEAGES | soluble
29 | KVWAFDIQPQALNNTRCRLQEAGYSNVRLILDGHENLKQYIPKPLDAAIFNFGWLPGGDKSLTTRTETSIAALSATLSLLKENGMLIAVLYPGHENGKQEAEAIEQWAKNLPQEQFAVLRYGFTNRKNSPPYLLVFEKLRQK | not soluble
